Fewer inactive variants are shown than the library holds.
B1: TPR 5TU (parent)
chain: GGAUCUUCUCGAUCUAACAAAAAAGACAAAUCUGCCACAAAGCUUGAGAGCAUCUUCGGAUGCAGAGGCGGCAGCCUUCGGUGGCGCGAUAGCGCCAACGUUCUCAACUAUGACACGCAAAACGCGUGCUCCGUUGAAUGGAGUUUAUCAUG

Variants of: B1
Experiment: polymerase ribozyme fitness, log enrichment relative to wild type (log ratio); higher = more active; in vitro selection for triplet polymerase activity
Summary of the method: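 Fitness is a logarithmic measure of how a genotype enriched relative to the wild type, with replicate averages weighted by inverse variance. The logarithm uses base 2, and enrichment came from Illumina sequencing of input and output libraries. Those libraries were PCR-built, transcribed mutants of each subunit of a heterodimeric triplet polymerase ribozyme, passed through one triplicate in vitro selection round that included frozen incubation at −7 °C, gel excision of extended constructs and streptavidin-bead capture. Genotypes were kept only if they had ≥10 input reads and ≥1 read per output.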

Point of comparison: GGAUCUUCUCGAUCUAACAAAAAAGACAAAUCUGCCACAAAGCUUGAGAGCAUCUUCGGAUGCAGAGGCGGCAGCCUUCGGUGGCGCGAUAGCACCAACGUUCUCAACUAUGACACGGAAAACGCGUGCUCCGUUGAAUGGAGUUUAUCAUG [G94A C118G], “polymerase ribozyme fitness (log ratio)” value -1.61. Against it:
- GGAUCUUCUCGAUCUAACAAAAAAGACAAAUCUGCCACAAAGCUUGAGUGCGUCUUCGGAUGCAGAGGCGGCAGCCUUCGGUGGCGCGAUAGCGCCAACGUUCUCAACUAUGACACGCAAAACGCGUGCUCCGUUGAAUGGAGUUUAUCAUG [A49U A52G] — within 0.2 log units, -1.71
- GGAUCUUCUCGAUCUAGCAUAAAAGACAAAUCUGCCACAAACCUUGAGCGCUUCUUCGGAUGCAGAGGCGGCAGCCUUCGGUGGCGCGAUAGCGCCAACGUUCUCAACUAUGACACGCAAAACGCGUGCUCCGUUGAAUGGAGUUUAACAUG [A17G A20U G42C A49C A52U U148A] — lower, ≤ -4.2
- GGAUCUUCUCGAUCUAACAAAAAAGACAAAUCUGCCACAAAGCUUGAGAGCAUCUUAGGAUGCAGAGGCGGCAGCCUUCGGUGGCGCGAUGGCGCCAACGUUCUCAACUAUGACACGCAAAACGCGUGCUCGGUUGAAUGGAGUUUAUCAUG [C57A A91G C132G] — lower, -4.05
- GGAUCUUCUCGAUCUAACAAAAUAGACAAAUCUGCCACAAAGCGUGAGAGCAUCUUCGGAUGCAGAGGCGGCAGCAUUUGGAGGCACGAUAGCGCCAACGUUCUCAACUAUGACACGCAAAACGCGUGCUCCGUUGAAUGGAAUUUAUCAUG [A23U U44G C76A C79U U82A G86A G143A] — lower, ≤ -4.2
- GGAUCUUCUCGAUCUAACAAAAAAGACAAAUCUGCCACAAAGCUUCAGAGCAUCUUCGGAUGCAGAGGCGGCAGUCUUCGGUGGCGCGAUAGGGCCAACGUUCUCAACUAUGACACGCAAAACGCGUGCUCCGUUGAAUGGAGAUUAUCAUG [G46C C75U C93G U144A] — lower, ≤ -4.2
- GGAUCUUCUCGAUCUAACAUAAAAGACAAAUCUGUCACAAAGCUUGAGAGCAUCUUCGGAUGCAGAGGCGGCAGCCUUCGGUGGCGCGAUAGCGCCAACGUUCUCAACUAUGACACGCAAAACGCGUGCUCCGUUGAAUGGAGCUUAUCAUG [A20U C35U U144C] — lower, -2.73
- GGAUCUUCUCGAUCUAACAAAAAAGACAAAUCUGCCACAAAGCUUGAGAGCAUCUUCGGAUGCAGAGGCGGCAGCCUUCGGUGGCGCGAAAGCGACAACGUUCUCAACUAUGACACGCAAAACGCGUGCUCCGUUGAAUGGAGUUUAUCAUG [U90A C95A] — lower, ≤ -4.2
- GGAUCUUCGCGAUCUUACAAAAAAGACAAAUAUGCCACAAAGCUUGAGAGCAUCUUCGGAUGCAGAGGCGGCAGCCUUCGGUGGGGCGAUAGCGCCAACGUUCUCAACUAUGACACGCAAAACGCGUGCUCCGUCGAAUGGAGUUUAUCAUU [U9G A16U C32A C85G U135C G152U] — lower, ≤ -4.2
- GGAUCUUCUCGAUCUAACAAAAAAGACAAAUCUGCCACAAAGCUUGAGAGCAUCUUCGGAUGCAGAGGCGGCAGCCUUCGGUGGUGCGAUAGCGCCAACGUUCUCAACUAUGACACGCAAAACGAGUGCUCCGUUGAAUGGAGUUUAUCAUG [C85U C125A] — within 0.2 log units, -1.45
- GGAUCUUCUCGAUCUAACAAAAAAGACAAAUCUGCCACAAAGCUUGUGAGCAUCUUCGAAUGCAGAGGCGGCAGCCUUCGGUGGCGCGAUAGCGCCAACGUUCUCAACUAUGACACGCAAAACUCGUGCUCCGUUGAAUGGAGUUUAUCAUG [A47U G59A G124U] — higher, -0.07
- GGAUCUUCUCGAUCUAACAAAAAAGACAAAUCUGCCACAAAGCUUGAGAGCAUCUUCGGAUGCAGAGGCGGCAGCCUUCGGUGGGGCGAUAGCGCCAACGUUCUCAACUAUGACACGCAAAACGCGUGCUCCGUUGAAUGGAGAUUAUUAUG [C85G U144A C149U] — lower, -3.7
- GGAUCUUCUCCAUCUAACAAAAAAGACAAAUCUGCCCCAAAGCUUGAGAGCAUCUUCGGAUGCAGAGGCGGCAGCCUUCGGGGGGGCGAUAGCGCCAACGUUCUUAACUAUGACAGGCAAAACGCGUGCUCCGUUGAAUGGAGUUUAUCAUG [G11C A37C U82G C85G C105U C116G] — lower, ≤ -4.2
- GGAUCUUCUCGAUCUAACAAAAAAGACAAAUCUGCCACAAAGCUUGAGAGCAUCUUCGGAUCUAGAGGCGGCAGCCUUCGGUGGCGCGAUAGCGCCAACGUUCUCAACUAUGACACGCAAAACGCGUGCUCCGUUGAAUGGAGUUUAUCAUG [G62C C63U] — lower, -2.25
- GGGUCUUCUCGAUCUAACAAAACAGGCAAAUCUGCCACAAAGCUAGAGAGCGUCUUCGAAUGCAGAGGCGGCAGCCUUCCGUGGCGCGAUAGCGCCAACGUUCUCCACUAUGACACGCAAAACGCGUGCUCCGUUGAAUGGAGUUUAUCAUG [A3G A23C A26G U45A A52G G59A G80C A106C] — lower, ≤ -4.2
- GGAUCUUCUCGAUCUAACAAAAAAGACAAAUCUGCUACAAAGCUUGAGAGCAUCUUCGGAUGCAGAGGCGGCAGCCUUCGGUGGCGCGAUAGCGCCAACGUUCUCAACUAUGACACGCAAAACGCGUGCUCCGUUGAAUGCAGUUUAUCAUG [C36U G141C] — lower, -2.17
- GGAUCUUCUCGAUCUAACAAAAAAGACAAAUCUGCCACAAAGCUUGUGAGCAUCUUCGGAUGCAGAGGCGGCAGCCUUCGGUGGCGCGAUAGCGCCAACGUUCUCAACUAUGACACGCAAAACGCGUGCUCCGUUGAAUGGAGUUUAUCAUG [A47U] — higher, -0.143
- GGAUCUUCUCGAUCUAACAAAAAAGACAAACCUGCCACAAAGCUUGAGAGCAUCUUCGGAUGCAGAGGCGGCAGCCUUCGGUGGCGCGAUAGCGCCAACGUUCUCAACUAUGACACGCAAAACGCGUGCUCCGUUGAAUGGAGUUUAACAUG [U31C U148A] — lower, -2.56
- GGAUCUUUUCGAUCUAACAAAAAAGACAAAUCUGCCACAAAGCUUGAGAGCAUCUUCGGAUGCAGAGGCGGCAGCCUUCGGUGGAGCGAUAGCGCCAACGUUCUCAACUAUGACACGCAAAACGCGUGCUCCGUUGAAUGGAGUUUAUCAUG [C8U C85A] — lower, -2.75
